This test has as its target T1, human TRADD death domain (199-312) (human, UniProt Q15628 199-312).
T1 sequence: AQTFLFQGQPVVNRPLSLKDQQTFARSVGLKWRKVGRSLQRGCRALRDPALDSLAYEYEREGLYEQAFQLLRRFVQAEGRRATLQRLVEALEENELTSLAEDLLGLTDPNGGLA
Put plainly: NMR solution structure.

B1: human p75 neurotrophin receptor death domain (330-427) (domain or fragment)
chain: KGDGGLYSSLPPAKREEVEKLLNGSAGDTWRHLAGELGYQPEHIDSFTHEACPVRALLASWATQDSATLDALLAALRRIQRADLVESLCSESTATSPV
Consider B1, for which the binding result is recorded as “binds”.
